{
  "source": "patent US20080221021A1",
  "about": "(published 2008)",
  "molecular_target": "T1, rat CRFBP C-terminally fused with a His6 sequence (rat, UniProt P24388 25-322)",
  "T1 chain": "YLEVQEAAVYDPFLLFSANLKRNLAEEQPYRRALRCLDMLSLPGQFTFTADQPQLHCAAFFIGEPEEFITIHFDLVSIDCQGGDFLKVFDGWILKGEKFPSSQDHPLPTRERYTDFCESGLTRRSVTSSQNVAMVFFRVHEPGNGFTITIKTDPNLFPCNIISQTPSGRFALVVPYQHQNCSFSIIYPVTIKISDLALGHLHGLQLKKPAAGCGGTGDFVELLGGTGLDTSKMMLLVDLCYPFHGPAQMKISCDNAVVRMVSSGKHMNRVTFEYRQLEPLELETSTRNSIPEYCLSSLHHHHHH",
  "test": "competition binding",
  "note": "Where no end group is shown, it is not given here.",
  "data": [
    {"binder": "SEEPPISLDLTFHLLREVLEMARAEQLAQQAHSNRKLMEII (not fully specified)", "note": "[human/rat corticotropin-releasing factor]", "values": [
      {"measurement": "IC50", "value": 0.54, "unit": "nM"}
    ]}
  ]
}
